# Several values for one entry are separate records, joined by “and”; a condition that tells them apart may be missing. Identical values can stand only once.
# What was measured:
# [1] = target: recombinant human PCSK9-His protein (Immunogen A) (human) (UniProt Q8NBP7); assay: SPR, Biacore T200; antibody captured by anti-human Fc
# [2] = target: recombinant cyno monkey PCSK9 protein (cyno monkey); assay: ELISA; antibody 0 nM
# [3] = target: recombinant cyno monkey PCSK9 protein (cyno monkey); assay: ELISA; antibody 6.67 nM
# [4] = target: recombinant human PCSK9-His protein (Immunogen A) (human) (UniProt Q8NBP7); assay: ELISA of PCSK9 binding to LDLR ECD; antibody 40 nM
# [5] = target: recombinant cyno monkey PCSK9 protein (cyno monkey); assay: ELISA; antibody 0.00067 nM
# [6] = target: recombinant human PCSK9-His protein (Immunogen A) (human) (UniProt Q8NBP7); assay: ELISA of PCSK9 binding to LDLR ECD; antibody 8 nM
# [7] = target: recombinant cyno monkey PCSK9 protein (cyno monkey); assay: ELISA; antibody 0 nM; remark: listed apart in the source
# [8] = target: recombinant cyno monkey PCSK9 protein (cyno monkey); assay: ELISA; antibody 0.000067 nM
# [9] = target: recombinant human PCSK9-His protein (Immunogen A) (human) (UniProt Q8NBP7); assay: ELISA of PCSK9 binding to LDLR ECD; antibody 0 nM
# [10] = target: recombinant human PCSK9^D374Y protein (human) (UniProt Q8NBP7); assay: ELISA of PCSK9^D374Y binding to LDLR ECD; antibody 0.06 nM
# [11] = target: recombinant cyno monkey PCSK9 protein (cyno monkey); assay: ELISA; antibody 66.67 nM
# [12] = target: recombinant human PCSK9-His protein (Immunogen A) (human) (UniProt Q8NBP7); assay: ELISA; antibody 66.67 nM
# [13] = target: recombinant cyno monkey PCSK9 protein (cyno monkey); assay: ELISA; antibody 0.67 nM
# [14] = target: recombinant human PCSK9-His protein (Immunogen A) (human) (UniProt Q8NBP7); assay: ELISA of PCSK9 binding to LDLR ECD; antibody 200 nM
# [15] = target: recombinant human PCSK9 protein, His-tagged (Immunogen A, hPCSK9-His) (human) (UniProt Q8NBP7); assay: blocking ELISA, biotin-hPCSK9-His on coated LDLR ECD-His; antibody 0.32 nM
# [16] = target: recombinant human PCSK9 protein, His-tagged (Immunogen A, hPCSK9-His) (human) (UniProt Q8NBP7); assay: blocking ELISA, biotin-hPCSK9-His on coated LDLR ECD-His; antibody 0.01 nM
# [17] = target: recombinant human PCSK9 protein, His-tagged (Immunogen A, hPCSK9-His) (human) (UniProt Q8NBP7); assay: blocking ELISA, biotin-hPCSK9-His on coated LDLR ECD-His; antibody 40 nM
# [18] = target: recombinant human PCSK9 protein, His-tagged (Immunogen A, hPCSK9-His) (human) (UniProt Q8NBP7); assay: ELISA, biotin-hPCSK9-His on streptavidin plate; antibody 66.67 nM
# [19] = target: recombinant human PCSK9 protein, His-tagged (Immunogen A, hPCSK9-His) (human) (UniProt Q8NBP7); assay: blocking ELISA, biotin-hPCSK9-His on coated LDLR ECD-His; antibody 200 nM
# [20] = target: recombinant human PCSK9 protein, His-tagged (Immunogen A, hPCSK9-His) (human) (UniProt Q8NBP7); assay: ELISA, biotin-hPCSK9-His on streptavidin plate; antibody 0.00067 nM
# [21] = target: recombinant cyno monkey PCSK9 protein (cyno monkey); assay: ELISA, biotin-cyno PCSK9 on streptavidin plate; antibody 0 nM (blank)
# [22] = target: recombinant human PCSK9 protein, His-tagged (Immunogen A, hPCSK9-His) (human) (UniProt Q8NBP7); assay: ELISA, biotin-hPCSK9-His on streptavidin plate; antibody 0 nM (blank)
# [23] = target: recombinant human PCSK9 protein, His-tagged (Immunogen A, hPCSK9-His) (human) (UniProt Q8NBP7); assay: ELISA, biotin-hPCSK9-His on streptavidin plate; antibody 0.0067 nM
# [24] = target: recombinant cyno monkey PCSK9 protein (cyno monkey); assay: ELISA, biotin-cyno PCSK9 on streptavidin plate; antibody 6.67 nM
# [25] = target: recombinant human PCSK9 protein, His-tagged (Immunogen A, hPCSK9-His) (human) (UniProt Q8NBP7); assay: ELISA, biotin-hPCSK9-His on streptavidin plate; antibody 0.67 nM
# [26] = target: recombinant human PCSK9 protein, His-tagged (Immunogen A, hPCSK9-His) (human) (UniProt Q8NBP7); assay: ELISA, biotin-hPCSK9-His on streptavidin plate; antibody 0.067 nM
# [27] = target: recombinant cyno monkey PCSK9 protein (cyno monkey); assay: ELISA, biotin-cyno PCSK9 on streptavidin plate; antibody 0.000067 nM
# [28] = target: recombinant human PCSK9 protein, His-tagged (Immunogen A, hPCSK9-His) (human) (UniProt Q8NBP7); assay: blocking ELISA, biotin-hPCSK9-His on coated LDLR ECD-His; antibody 8 nM
# [29] = target: recombinant human PCSK9 protein, His-tagged (Immunogen A, hPCSK9-His) (human) (UniProt Q8NBP7); assay: blocking ELISA, biotin-hPCSK9-His on coated LDLR ECD-His; antibody 1.6 nM
# [30] = target: recombinant cyno monkey PCSK9 protein (cyno monkey); assay: ELISA, biotin-cyno PCSK9 on streptavidin plate; antibody 0.0067 nM
# [31] = target: recombinant human PCSK9 protein, His-tagged (Immunogen A, hPCSK9-His) (human) (UniProt Q8NBP7); assay: ELISA, biotin-hPCSK9-His on streptavidin plate; antibody 6.67 nM
# [32] = target: recombinant cyno monkey PCSK9 protein (cyno monkey); assay: ELISA, biotin-cyno PCSK9 on streptavidin plate; antibody 66.67 nM
# [33] = target: recombinant cyno monkey PCSK9 protein (cyno monkey); assay: ELISA, biotin-cyno PCSK9 on streptavidin plate; antibody 0.67 nM
# [34] = target: recombinant cyno monkey PCSK9 protein (cyno monkey); assay: ELISA, biotin-cyno PCSK9 on streptavidin plate; antibody 0.067 nM
# [35] = target: recombinant human PCSK9 protein, His-tagged (Immunogen A, hPCSK9-His) (human) (UniProt Q8NBP7); assay: blocking ELISA, biotin-hPCSK9-His on coated LDLR ECD-His; antibody 0.06 nM
# [36] = target: recombinant cyno monkey PCSK9 protein (cyno monkey); assay: ELISA, biotin-cyno PCSK9 on streptavidin plate; antibody 0.00067 nM
# [37] = target: recombinant human PCSK9 protein, His-tagged (Immunogen A, hPCSK9-His) (human) (UniProt Q8NBP7); assay: ELISA, biotin-hPCSK9-His on streptavidin plate; antibody 0.000067 nM
# Sequence of recombinant cyno monkey PCSK9 protein (cyno monkey) (A8T666 31-692 limits assumed): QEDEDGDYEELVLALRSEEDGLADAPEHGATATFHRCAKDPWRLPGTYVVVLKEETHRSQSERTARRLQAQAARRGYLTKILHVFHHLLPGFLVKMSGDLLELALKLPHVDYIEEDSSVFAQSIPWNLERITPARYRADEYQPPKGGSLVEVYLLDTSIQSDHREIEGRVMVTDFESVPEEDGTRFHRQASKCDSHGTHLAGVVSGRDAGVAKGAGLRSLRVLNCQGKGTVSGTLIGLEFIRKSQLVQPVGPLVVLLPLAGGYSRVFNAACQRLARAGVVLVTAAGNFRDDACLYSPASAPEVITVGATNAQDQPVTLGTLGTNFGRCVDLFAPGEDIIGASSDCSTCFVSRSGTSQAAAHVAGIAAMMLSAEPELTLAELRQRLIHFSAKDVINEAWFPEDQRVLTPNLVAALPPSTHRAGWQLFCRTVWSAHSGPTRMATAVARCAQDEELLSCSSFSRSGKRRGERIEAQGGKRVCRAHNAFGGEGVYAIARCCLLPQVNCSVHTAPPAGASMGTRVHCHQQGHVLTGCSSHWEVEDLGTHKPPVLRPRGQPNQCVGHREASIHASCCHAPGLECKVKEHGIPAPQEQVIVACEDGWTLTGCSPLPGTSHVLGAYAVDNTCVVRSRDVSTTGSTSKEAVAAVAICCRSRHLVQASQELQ
substance,measurement,setting,value
"Alirocumab, Regeneron (antibody)",Kd,[1],0.394 nM
same,koff,[1],0.000318 s⁻¹
same,kon,[1],806000 M⁻¹ s⁻¹
"Evolocumab, Amgen (antibody)",Kd,[1],< 0.122 nM
same,koff,[1],0.000822 s⁻¹
same,kon,[1],< 100000 M⁻¹ s⁻¹
IgG control (human IgG) (antibody),OD450 nm,[2],0.07 OD450 nm
same,OD450 nm,[3],0.15 OD450 nm
same,OD450 nm,[4],1.43 OD450 nm
same,OD450 nm,[5],0.07 OD450 nm
same,OD450 nm,[6],1.76 OD450 nm
same,OD450 nm,[7],0.06 OD450 nm
same,OD450 nm,[8],0.07 OD450 nm
same,OD450 nm,[9],2.4 OD450 nm
same,OD450 nm,[10],1.57 OD450 nm
same,OD450 nm,[11],0.81 OD450 nm
same,OD450 nm,[12],0.97 OD450 nm
same,OD450 nm,[13],0.08 OD450 nm
same,OD450 nm,[14],1.41 OD450 nm
IgG control (rat IgG) (antibody),OD450 nm (PCSK9 bound to LDLR),[15],1.2 OD450 nm and 1.13 OD450 nm
same,OD450 nm (PCSK9 bound to LDLR),[16],1.22 OD450 nm and 1.18 OD450 nm
same,OD450 nm (PCSK9 bound to LDLR),[17],1.01 OD450 nm and 1.11 OD450 nm
same,OD450 nm,[18],0.11 OD450 nm
same,OD450 nm (PCSK9 bound to LDLR),[19],1.22 OD450 nm and 1.14 OD450 nm
same,OD450 nm,[20],0.18 OD450 nm and 0.09 OD450 nm
same,OD450 nm,[21],0.15 OD450 nm
same,OD450 nm,[22],0.1 OD450 nm
same,OD450 nm,[23],0.18 OD450 nm and 0.1 OD450 nm
same,OD450 nm,[24],0.17 OD450 nm
same,OD450 nm,[25],0.09 OD450 nm
same,OD450 nm,[26],0.12 OD450 nm and 0.09 OD450 nm
same,OD450 nm,[27],0.19 OD450 nm
same,OD450 nm (PCSK9 bound to LDLR),[28],1.02 OD450 nm and 1.07 OD450 nm
same,OD450 nm (PCSK9 bound to LDLR),[29],1.09 OD450 nm and 1.12 OD450 nm
same,OD450 nm,[30],0.12 OD450 nm
same,OD450 nm,[31],0.1 OD450 nm
same,OD450 nm,[32],0.18 OD450 nm
same,OD450 nm,[33],0.12 OD450 nm
same,OD450 nm,[34],0.12 OD450 nm
same,OD450 nm (PCSK9 bound to LDLR),[35],1.26 OD450 nm and 1.2 OD450 nm
same,OD450 nm,[36],0.16 OD450 nm
same,OD450 nm,[37],0.11 OD450 nm

# Source: patent US20180355059A1
